# B1: A1_34 (designed binder)
# chain: CNPTGKFKCRSGRCVPRESCRCDGVDDCEDNSDEKDCQPHTSLQ
# notes: HA fusion, tested as expression lysate
# B2: CD28-A10 (designed binder)
# chain: CGPGRFQCESGQCVPATWVCDGDDDCADGSDEKSCATTAPTCESNQFQCGSGQCLPGTWRCDGVNDCADSSDETGCGRPGPGATSAPAACGPGRFQCNNGNCVPQTLGCDGDNDCGDSSDEANCSAPASEPPGSL
# B3: recombinant human FcERI protein (receptor, UniProt P12319 26-205, looked up)
# chain: VPQKPKVSLNPPWNRIFKGENVTLTCNGNNFFEVSSTKWFHNGSLSEETNSSLNIVNAKFEDSGEYKCQHQQVNESEPVYLEVFSDWLLLQASAEVVMEGQPLFLRCHGWRNWDVYKVIYYKDGEALKYWYENHNISITNATVEDSGTYYCTGKVWQLDYESEPLNITVIKAPREKYWLQ
# notes: also called recombinant FcERI; recombinant soluble IgE receptor
# What was measured:
# human serum albumin = target: T1, human serum albumin (human, UniProt P02768 25-609); experiment: ELISA, 0.5 µg HSA per well, expression lysate, anti-HA-HRP, signal equal to or better than the anti-HSA trimer
# T1 construct: also called HSA; HAS
# Protocol: ELISA plate wells were coated with 0.2 μg of CD40L or 0.5 μg of HAS, and 5 μl of the monomer expression clone lysate was applied to each well. The bound monomers (which were produced as a hemagglutinin (HA) fusion) were then detected by anti-HA-HRP conjugated antibody, developed by horse-radish peroxidase enzyme activity, and read at an OD of 450 nm.
# CD28 on monkey PBMC = CD28 on monkey PBMC (monkey); experiment: cell-based or functional assay
# human IgE = human IgE (human, UniProt P01854 1-428); experiment: Biacore, human IgE coupled to a CM5 chip by NHS/EDC, sample protein in flow
# Source text: Human IgE was immobilized to a CM5 chip (BiaCore) using standard NHS/EDC methods. Sample proteins were dialyzed into HBS buffer overnight, and the dialysis buffer was used as a running buffer for the experiment. Sample proteins were run successively over IgE or ethanolamine coated flow cells, and the data analyzed using the BiaEvaluation software package.
# Chain of human IgE (P01854 other isoform, or with tags, fused parts or gaps): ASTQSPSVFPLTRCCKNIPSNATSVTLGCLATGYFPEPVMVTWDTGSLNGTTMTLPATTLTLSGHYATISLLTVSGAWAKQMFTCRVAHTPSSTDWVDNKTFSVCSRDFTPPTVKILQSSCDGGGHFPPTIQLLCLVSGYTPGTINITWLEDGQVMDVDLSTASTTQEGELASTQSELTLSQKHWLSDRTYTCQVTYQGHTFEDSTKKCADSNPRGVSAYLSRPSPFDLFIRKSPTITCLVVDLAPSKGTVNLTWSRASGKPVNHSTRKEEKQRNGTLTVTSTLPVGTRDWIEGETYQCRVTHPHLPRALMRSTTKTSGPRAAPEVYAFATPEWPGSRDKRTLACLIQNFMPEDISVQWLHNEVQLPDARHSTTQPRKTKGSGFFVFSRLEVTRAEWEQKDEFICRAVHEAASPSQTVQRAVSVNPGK
binder,measurement,setting,value
B1,binding result,human serum albumin,binds
B2,"IC50, PBMC assay on monkey cells",CD28 on monkey PBMC,7 nM
B3,Kd,human IgE,450 nM

# Reference: patent publication US20050053973A1 (published 2005)
